Assay results taken from patent US8889621B2, “Inhibiting binding of FGF23 to the binary FGFR-Klotho complex for the treatment of hypophosphatemia” (New York University, priority 2009, dated 2014).

Target: T1, FGFR1c-Klotho complex (UniProt O35082+P11362)
T1 construct: The ectodomain of murine Klotho (A35 to K982) was purified from culture media; FLAG (C); made in house; host or cells: E. coli (FGFR1c); HEK293 conditioned media (Klotho ectodomain)
T1 sequence (P11362 142-365): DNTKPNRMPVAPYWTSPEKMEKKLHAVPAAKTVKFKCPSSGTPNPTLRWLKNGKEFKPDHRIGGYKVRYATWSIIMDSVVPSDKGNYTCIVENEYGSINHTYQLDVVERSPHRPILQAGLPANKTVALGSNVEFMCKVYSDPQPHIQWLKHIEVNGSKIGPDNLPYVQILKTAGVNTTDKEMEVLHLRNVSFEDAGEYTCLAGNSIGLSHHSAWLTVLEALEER
T1 sequence (O35082 35-982): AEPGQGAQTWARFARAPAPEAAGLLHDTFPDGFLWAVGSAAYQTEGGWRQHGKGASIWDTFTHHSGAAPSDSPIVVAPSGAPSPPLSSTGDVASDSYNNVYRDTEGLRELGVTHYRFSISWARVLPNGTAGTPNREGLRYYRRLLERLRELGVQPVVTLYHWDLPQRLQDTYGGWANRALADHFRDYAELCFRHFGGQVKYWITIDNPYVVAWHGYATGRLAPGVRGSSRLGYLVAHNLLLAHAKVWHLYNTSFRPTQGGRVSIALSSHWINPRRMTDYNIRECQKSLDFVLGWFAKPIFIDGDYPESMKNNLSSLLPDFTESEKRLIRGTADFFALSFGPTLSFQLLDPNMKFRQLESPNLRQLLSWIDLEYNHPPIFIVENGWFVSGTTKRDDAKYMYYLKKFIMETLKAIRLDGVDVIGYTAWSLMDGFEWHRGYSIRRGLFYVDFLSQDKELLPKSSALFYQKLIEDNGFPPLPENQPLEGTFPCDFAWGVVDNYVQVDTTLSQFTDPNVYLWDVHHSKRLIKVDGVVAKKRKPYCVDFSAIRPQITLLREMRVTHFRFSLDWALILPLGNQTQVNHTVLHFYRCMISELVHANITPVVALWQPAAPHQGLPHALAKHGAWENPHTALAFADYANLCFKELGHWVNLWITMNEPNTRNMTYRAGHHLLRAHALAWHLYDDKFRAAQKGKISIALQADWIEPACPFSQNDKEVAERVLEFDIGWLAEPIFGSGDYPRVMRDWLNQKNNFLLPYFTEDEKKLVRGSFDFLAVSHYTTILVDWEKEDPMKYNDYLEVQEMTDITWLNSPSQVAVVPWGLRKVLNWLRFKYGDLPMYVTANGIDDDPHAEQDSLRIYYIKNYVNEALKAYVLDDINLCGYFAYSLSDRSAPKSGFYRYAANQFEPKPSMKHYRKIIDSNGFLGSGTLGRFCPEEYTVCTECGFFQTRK
Assay: Size-exclusion chromatography of ternary complex formation
Type: binding, human FGFR1c, murine Klotho
Settings: 1.0 M NaCl, pH7.5
Protocol: Size-exclusion chromatography may also be used to determine that an agent specifically binds the binary FGFR-Klotho complex. One aspect of the present invention utilizes size-exclusion chromatography. The size-exclusion chromatography experiments were performed on a HiLoad™ 16/60 Superdex™ 200 prep grade column. Because of poor solubility of FGF23 proteins and FGFR1c ectodomain in low salt buffer, the experiments were carried out with 25 mM HEPES-NaOH buffer, pH7.5, containing 1.0 M NaCl. Sample injection volume was 0.3 to 1.0 ml, and the flow rate was 1.0 ml min^−1. Protein retention times were determined by absorbance at 280 nm. The column was calibrated with ferritin (440 kDa), immunoglobulin G (150 kDa), albumin (69.3 kDa), ovalbumin (44.3 kDa), and carbonic anhydrase (28.8 kDa). The void volume was determined using blue dextran 2,000. […]
Size-exclusion chromatography experiments were performed on a HiLoad™ 16/60 Superdex™ 200 prep grade column (GE Healthcare) mounted on an ÄKTApurifier (GE Healthcare). […] Protein retention times were determined by absorbance at 280 nm. […] The void volume was determined using blue dextran 2,000. […]

- co-elution with the FGFR1c-Klotho complex: co-eluted with the FGFR1c-Klotho complex
B1: FGF23^28-251: human FGF23 (A28 to I251), bioactive full-length ligand expressed in E. coli (protein, listed as Homo sapiens)
chain: ASPLLGSSWGGLIHLYTATARNSYHLQIHKNGHVDGAPHQTIYSALMIRSEDAGFVVITGVMSRRYLCMDFRGNIFGSHYFDPENCRFQHQTLENGYDVYHSPQYHFLVSLGRAKRAFLPGMNPPPYSQFLSRRNEIPLIHFNTPIPRRHTRSAEDDSERDPLNVLKPRARMTPAPASCSQELPSAEDNSPMASDPLGVVRGGRVNTHAGGTGPEGCRPFAKFI
